Test results reported in patent US20260150817A1 (LEVERAGEN, published 2026).
Where two headings read alike, the source gives them in different places.

Experiments:
[1] = molecular target: T1, SARS-Cov2 Spike Active Trimer SAT (R&D Systems; Catalog No. 10549-CV) (SARS-CoV-2, UniProt P0DTC2 16-1211)
[2] = molecular target: T1, SARS-Cov2 Spike Active Trimer SAT (R&D …); test: SPR (Carterra)
[3] = molecular target: T1, SARS-Cov2 Spike Active Trimer SAT (R&D …); remark: listed apart in the source
[4] = molecular target: T1, SARS-Cov2 Spike Active Trimer SAT (R&D …); test: ELISA, serially diluted purified Nb-Fc against SAT antigen

B1: M320_5 Nb-Fc (Fc fusion)
chain: EVQLQQSGPELVKPGASVKMSCKASGYTFTDYYIKWEKQSHGKSLEWIGDINPKNGETFYNQQFKGKATLTVDKSSSTAYMQLNSLTSEDSAVYYCARKEYGDYGYAVDYWGQGTSVTVSS
notes: also called LVGN-S3205
[1]
  Kd: 1.21 nM
[2]
  Kd: 3.17 nM
[3]
  Kd: 1.06 nM
  koff: 0.000143 s⁻¹
  kon: 135000 M⁻¹ s⁻¹
[4]
  EC50: 0.024 nM

B2: M2S320_377 Nb-Fc (Fc fusion)
chain: EVQLQQSGPELVKPGASVKMSCKASGYTFTDYYVKWKKQSHGKSLEWIGDINPNNGDTFYNQKFKDKATLTVDKSSSTAYMQLNSLTSEDSAVYYCARKEYGNFGYAVDYWGQGTSVTVSS
notes: also called LVGN-S320377
[4]
  EC50: 0.097 nM

B3: M2S320_75 Nb-Fc (Fc fusion)
chain: EVQLQQSGPELVKPGASVKMSCKASGYTFTDYYMKWLKQNHGKSLEWIGDINPNNGDTFYNQKFKGKATLTVDTSSSTAYMQLNSLTSEDSAVYYCARKEYGDYGYATDYWGQGTSVTVSS
notes: also called LVGN-S32075
[4]
  EC50: 0.068 nM

B4: M2S521_623 Nb-Fc (Fc fusion)
chain: EVQLQQSGPELVKPGASVKISCKASGYTFTDYYMKWEKQSHGKSLEWIGDINPNNGGTRYNQKFRGKATLTVDKSSSTAYMELRSLTSEDSAVYYCARLEDDYYGYAVDYWGQGTSVTVSS
notes: also called LVGN-S521623
[4]
  EC50: 0.054 nM

B5: M2S521_72 Nb-Fc (Fc fusion)
chain: EVQLQQSGPELVKPGASVKISCKASGYTFTDYYMKWAKQSHGKSLEWIGHINPVNGDTSYNQKFKGKATLTVDKSSSTVYMELRSLTSEDSAVYYCARLEDGYYGYTMDYWGQGTSVTVSS
notes: also called LVGN-S52172
[4]
  EC50: 0.063 nM

B6: MS521_35 Nb-Fc (Fc fusion)
chain: EVQLQQSGPELVKPGASVKISCKASGYTFTDYYMKWVKQRHGQSLEWIGNINPTNGDTNYSQNFKGKATLTVDKSSTTAYMELRSLTSEDSAVYYCARLEDGYYGYAVDYWGQGTSVTVSS
notes: also called LVGN-S52135
[1]
  Kd: 9.09 nM
[2]
  Kd: 5.3 nM
[3]
  koff: 0.000685 s⁻¹
  kon: 75300 M⁻¹ s⁻¹
[4]
  EC50: 0.024 nM

B7: M2S521_378 Nb-Fc (Fc fusion)
chain: EVQLQQSGPELVKPGASVKISCKASGYTFTDYYMKWVKQSHGKSLEWIGDINPKNGGTNYNQKFKDKATLTVDKSSSTAYMELRSLTSEDSAVYYCARLEDGYYGYAIDYWSQGTSVTVSS
notes: also called LVGN-S521378
[4]
  EC50: 0.081 nM

B8: M2S521_193 Nb-Fc (Fc fusion)
chain: EVQLQQSGPELVKPGASVKISCKASGYTFTDYYMKWVKQSHGKSLEWIGDINPNNGGARYNQKFKGRATLTVDKSSSTAYMELRSLTSEDSAVYYCSRLEDGYYGYAVDYWGQGTSVTVSS
notes: also called LVGN-S521193
[4]
  EC50: 0.085 nM
